{"source": "the DeepSol protein solubility set"}
{"test": "soluble on expression in E. coli; label from the status in PepcDB or PDB records"}
{"sequence": "MGSDKIHHHHHHMPTLNQPQARFLALPHKFRAFVAGFGSGKTWVGGAGLCRHAWEFPRVNSGYFAPTYGQIRDIFYPTIEEVAHDWGLAAKINESNKEVHLFAGRKYRGTVICRSMEKPGDIVGFKIGKGLIDELDVMKADKAALAWRKIIARLRHTAPGLLNGVDVTTTPEGFKFVYQQFVKQVRERPELAALYGLVQASTYENGKNLPEDYIPSLRASYPPQLIAAYLRGQFTNLTSGSVYANFDRRLHHTDAAEEPHEELHIGMDFNVLNMTATVNVIRAGLPLTVGELTKVRDTPEMARMLKERFKDKGHGVTIYPDASGGNTSSKNASESDLSILRKAGFTVRVNSRNPSVKDRINAVNGMLLNDEGARRWLVNTDRCPTLTEALEQQVYDKNGEPDKSTGHDHPNDAQGYFLVHRYPITPTGMSRIKLTGT", "soluble on expression in E. coli": "not soluble"}
{"sequence": "MGSDKIHHHHHHMYLIRKKYITSLENILKKEGVIVDALSNDATIRYRSEEIGDEFTSVYNIQKLLNIAYASQGKESFGLLSYEYFHPGDYDIVNYIMMSSDNLLHALECLCRFSRLLYSGCQLTLDKKNTNTYCIGFTYLYPQDKNKEITRQFHELTVASLLAYCQWLTAANFTHFSSMEFSYPQPYGIRKYETLFACPMTFGTHRNCVYLNAEILLMPLVTSNASLFKLHEKHATCLIDILFNKTIKSRVRDSINKKLETGSCNIHSVASDLFMTPRTLQRRLEEEGAYFKDILEDVKMNLAEYYLIYSQYSLSQVAELVGYKDLSSFHRACLRWFRSSPGFFRERGCKKACLPMK", "soluble on expression in E. coli": "not soluble"}
{"sequence": "SHMRVLVCGGAGYIGSHFVRALLRDTNHSVVIVDSLVGTHGKSDHVETRENVARKLQQSDGPKPPWADRYAALEVGDVRNEDFLNGVFTRHGPIDAVVHMCAFLAVGESVRDPLKYYDNNVVGILRLLQAMLLHKCDKIIFSSSAAIFGNPTMGSVSTNAEPIDINAKKSPESPYGESKLIAERMIRDCAEAYGIKGICLRYFNACGAHEDGDIGEHYQGSTHLIPIILGRVMSDIAPDQRLTIHEDASTDKRMPIFGTDYPTPDGTCVRDYVHVCDLASAHILALDYVEKLGPNDKSKYFSVFNLGTSRGYSVREVIEVARKTTGHPIPVRECGRREGDPAYLVAASDKAREVLGWKPKYDTLEAIMETSWKFQRTHPNGYASQENGTPGGRTTKL", "soluble on expression in E. coli": "soluble"}
{"sequence": "MGSDKIHHHHHHMSSSAPIDYAALADRIHTWGRELGFQQVGITDTDLAAHERYLERWLAAGYHGEMHFMAKHGSKRTRPEELVPGTLRVVSVRMDYLPPEVETTKVLGQPERAYISRYALGRDYHKLIRKRLATLAKRIEDEVGAYGYRAFVDSAPVMERALAQKAGLGWFGKNAMLLNPQAGSLFFLGELYTDLPLPVDAPFDSEHCGKCSRCQTACPTGAIVDDKVIDSRRCISYLTIELAGSIPEEYREAMGNRVYGCDDCQLVCPFTRFTRVSREDDFAPRHDLDRASLVRLFAWSEEEFLARTEGSAIRRIGYERWLRNLAIGLGNAPWSDQVESALRARLAYPSDLVREHVRWGLEQQRRKRERRIASDVDAPAAPERSA", "soluble on expression in E. coli": "not soluble"}
{"sequence": "MACAAARSPADQDRFICIYPAYLNNKKTIAEGRRIPISKAVENPTATEIQDVCSAVGLNVFLEKNKMYSREWNRDVQYRGRVRVQLKQEDGSLCLVQFPSRKSVMLYAAEMIPKLKTRTQLEHHHHHH", "soluble on expression in E. coli": "soluble"}
{"sequence": "MGSDKIHHHHHHMNAVLQKKGGVGIIILARLDSTRLPGKALRTAAGKEMLGYVVERARMVRGVSEIVLATTDRTVDDRLEEYAAACDLAVFRGSDVDVAGRVAACVRWRGWDAFVRINGDSPFIDPQTISSAVNLLYGLGGVSAAGLSDSHAQRGNMHAECASLPLVACGSVTLAGYAGHDATELPDMVTNVLRRTFPKGQSVEVCRASAFLAGYAAMHLPEHLEHVTKYFYDTRSIRIMNMESGDPSLGEIQLAVDTEEDFALFERMLARMDRPHTAYAAHEIIELYRECLHG", "soluble on expression in E. coli": "not soluble"}
{"sequence": "MSMEDPFFVVKGEVQKAVNTAQGLFQRWTELLQGPSAATREEIDWTTNELRNNLRSIEWDLEDLDETISIVEANPRKFNLDATELSIRKAFITSTRQIVRDMKDQMSASS", "soluble on expression in E. coli": "soluble"}
{"sequence": "AIATYPTNLEIIGGQGGSSFSFTGENNGASLEKIWVWVGGWQIKAVRAWLSDGRDETFGVPSGSHQEYVFTPGECFTSLSLWGNGAGTRLGAIKFKTNKGGEFFAHMTSWGLKTEYPMDVGSGYCLGIVGRGGSDIDCMGFMFLNAVQSTVLTNVNYPTINQLIPKVATEEIKSVSFENKTSVKQEQKVETSKKVIKTSSWSMTKSFSSTFSVEVSAGIPEIAEVSTGFSISFGVESTHSLEQTDEKNETLTTTVEVPPKKKVDVHITIGRASFDLPYTGTVKITCKNGSVLQYETKGQYKGVAYTDIKVNTVEKDL", "soluble on expression in E. coli": "soluble"}
{"sequence": "LSKVVIRRLPPTLTKEQLQEHLQPMPEHDYFEFFSNDTSLYPHMYARAYINFKNQEDIILFRDRFDGYVFLDNKGQEYPAIVEFAPFQKAA", "soluble on expression in E. coli": "soluble"}
{"sequence": "MVAKKWVYYFGGGNADGNKNMKELLGGKGANLAEMVNLGIPVPPGFTITTEACKTYQETETIPQEVADQVRENVSRVEKEMGAKFGDPANPLLFSVRSGAAASMPGMMDTVLNLGLNKVTVDAWVRRAPRLERFVYDSYRRFITMYADIVMQVGREDFEEALSRMKERRGTKFDTDLTASDLKELCDGYLELFELKTGCSFPQDPVMQLFAAIKAVFRSWGNPRATIYRRMNNITGLLGTAVNVQAMVFGNINDRSATGVAFSRSPSTGENFFFGEYLVNAQGEDVVAGIRTPQQINHSLSLRWAKAHGVGEEERRKRYPSMEEAMPENYRLLCDVRKRLENHYRDMQDLEFTVQDGRLWLLQCRNGKRTIHAAVRIAIDMVNEGLISREEAVLRIDPYQVDHLMHPNLEPGAEKANKPIGRGLAASPGAAVGQVVFDAESAKEWSGRGKKVIMVRLETSPEDLAGMDAACGILTARGGMTSHAAVVARGMGKCCVSGCGDMVIRGKSFKLNGSVFREGDYITIDGSKGLIYAGKLKLRSPDLKGSFQTILQWCQEMKRLGVRTNADTPADAAKARSFGAEGVGLCRTEHMFFEGSRINFIREMILADSASGRKAALDKLLPIQRADFVGILRAMRGLPVTIRLLDPPLHEFVPHDAAAQFELAQKLGMPAEKVRNRVNALHELNPMLGHRGCRLGITYPEIYNMQVRAIIEAAIAVSEEGSSVIPEIMVPLVGKKEELSLIREEVVKTAEAVITKSGKRVHYTVGTMIEVPRAAVTADSIAQKADFFSFGTNDLTQMGCGFSRDDAGPFLRHYGNLGIYAQDPFQSIDQEGIGELVRIAVTKGRRVKPMLKMGICGEHGGDPATIGFCHKVGLDYVSCSPFRVPVAIVAAAHASIKDRRAAMKARKGFAAKL", "soluble on expression in E. coli": "soluble"}
{"sequence": "MSLDGQGEAVVEGHEAALLLSESRASVDPELRSAIATLPESMRRVALYHFGWQHADGTPAAGNAGKAIRPALVLTAAAALGGPGARAAAVRAAAAVELVHNFTLLHDDVMDRDATRRHRPTAWTVFGDADAILAGDALQALALRLFAADPHPASAAAATRLADCVMELCEGQHADTAMERRPPDEVTLDETLVMAEAKTGALLGCACAVGALYAGAATEDVEALDAFGREAGMAFQLIDDVIGIWGDPRHTGKPAGADLAARKKSLPVVAALTSGTPAAAELAELYTGPYDENKEDLERTALAVERAGGRDWAQAQAADRMARAMQELARAVPEPEAAGGLLALAEFVTRRSTEGHHHHHH", "soluble on expression in E. coli": "soluble"}
{"sequence": "MGSDKIHHHHHHVGAGGRDVVWTPRSLYLTDFIHANLLEKLKMQTLIIYSTIDGQTLAICQKIKLFAEQAGENVSLVTLEQAEALSLADFDKVLIGASIRYGKYRPELYQFVNRHHAVLDTKINGFFSVNVVARKPLKNTPETNPYMQKFLKLSLWQPQHLAVFAGKIDYPKYSFFDRTMIRFIMWMTKGPTDINGTFEFTDWAKVDAFGTDFSHQ", "soluble on expression in E. coli": "not soluble"}
{"sequence": "MSYTKEQLMLAFSYMSYYGITHTGSAKKNAELILKKMKEALKTWKPFQEDDWEVVWGPAVYTMPFTIFNDAMMYVIQKKGAEGEYVIAIRGTNPVSISDWLFNDFMVSAMKKWPYASVEGRILKISESTSYGLKTLQKLKPKSHIPGENKTILQFLNEKIGPEGKAKICVTGHSKGGALSSTLALWLKDIQGVKLSQNIDISTIPFAGPTAGNADFADYFDDCLGDQCTRIANSLDIVPYAWNTNSLKKLKSIYISEQASVKPLLYQRALIRAMIAETKGKKYKQIKAETPPLEGNINPILIEYLVQAAYQHVVGYPELMGMMDDIPLTDIFEDAIAGLLHHHHHH", "soluble on expression in E. coli": "soluble"}
{"sequence": "MSLTSEIVNSAWKVIPMFESRSIPLTVDFYTKTLGFELGSVKPEDNESELYFCSLAIGKKADANFYFSKVTPETFKSSHAMIGLGTRQLDDYYVYLKGKIEVEFSEDIEDKPWGFRQFTIKDTDGNSLTFFKFLEGGNPGDEGHHHHHH", "soluble on expression in E. coli": "soluble"}
{"sequence": "AGGEDRGDGEPVSVVTVRVQYLEDTDPFACANFPEPRRAPTCSLDGALPLGAQIPAVHRLLGAPLKLEDCALQVSPSGYYLDTELSLEEQREMLEGFYEEISKGRKPTLILRTQLSVRVNAILEKLYSSSGPELRRSLFSLKQIFQEDKDLVPEFVHSEGLSCLIRVGAAADHNYQSYILRALGQLMLFVDGMLGVVAHSDTIQWLYTLCASLSR", "soluble on expression in E. coli": "not soluble"}
{"sequence": "MSDMSEQSVEIASSQLGTKDFWDQRYELELKNFKQHGDEGEVWFGTSSETRIVKYLIDSKTGKDAKILDLGCGNGSVLRKLRSKGFQSLKGVDYCQKAVDLSAAASKAEREEEEDEELVDIEFEQLDITTPPADFFSSKFDVILDKGTWDAMSLSDEREARLKAYLGFLDNGLSAGGRFVIFSCNFTFDEMCSQFGGGGGSTSLEIVCEVPASHSFSFGGKQGVTSTGAVFRKKTL", "soluble on expression in E. coli": "not soluble"}
{"sequence": "MAHHHHHHMHFSLQKKNICTNSTKCVNVHPYLFPPLGMVPKRVRYDVHRGGEQHTDITNLLHTFKRFKMVKTSSYRRKSRSSPNGQGQKAKIGIKRLSAEYVKTGQLLVKQRKIIAFNLERKTRRRNFKYYPGEHVKVTKNTSLVALTNGRVKYTFHTTQNVLIVNVLPEEIDELREEDLYRYRTEHVRSLEENRSLVYLRMKHVVSFPPSKETQFRKPPLRPQFLARYDIEDNPTLREVPVLYHKPK", "soluble on expression in E. coli": "not soluble"}
{"sequence": "MKTIIREMVETIKQLFAQKQQMQEPVVANYEVSEIVEQKTLKKKEESEKTGEKTGKSNKWSQSLTLQLKEYLNDNFDFRYNNLTGATEYREKSGKNCFRPIDEREMNGMIVDARLEGIPCWRGDVPTMVLSNKVESYNPFHLYVKELPGWDGVDRVTPLLLRVSDNEIWLRGGRCWLRAMLSQWSGEERLHANVLTPVLISGKQGLSKSTFCRLLMPDSLRHYFIDNLNLAAGSSPEKKLVKNGLINLDEFDKIKESQQATLKNLLQMVNVPVFRGKRLGWVNESRLASFIATTNVYQVLIDSTGSRRFLCVEVLKPISEEPLEHKQIYAQLKEELKSGAPDYLNKEEEKALQKHNKAYYRQSLLEDVFHCCFRHPLETEKGIWLTTAEIFQVMRKFNSAALKEVSARQLGLKLSAMGYMAKHTSFGNRYYVFNLSAEKKDASL", "soluble on expression in E. coli": "not soluble"}
{"sequence": "MTTSIWKKLVTAVRGGASEVGESIADANAIRILDQEIRDADNALVKARDGLITIKAKHKLSAQRLEEHATSIANWEGRAMQALNKGEEALAVECASKIAEIEALRDQEQELADQFGKQVSLLQEQVIKAESRIKSLKQQVEMAKARETVQRARVATATATGGASGSVETAVGSLARLKQRQDEQDAKLEAAEELASQSSGSDLERRLQDAGIGAKSGGAQDVLARLKAKNQTPAQLEHHHHHH", "soluble on expression in E. coli": "not soluble"}
